Data set [1] deals with T1, ABCG2 (Homo sapiens, UniProt Q9UNQ0).
T1 construct: expressed in transfected cells
T1 sequence (Q9UNQ0 1-655): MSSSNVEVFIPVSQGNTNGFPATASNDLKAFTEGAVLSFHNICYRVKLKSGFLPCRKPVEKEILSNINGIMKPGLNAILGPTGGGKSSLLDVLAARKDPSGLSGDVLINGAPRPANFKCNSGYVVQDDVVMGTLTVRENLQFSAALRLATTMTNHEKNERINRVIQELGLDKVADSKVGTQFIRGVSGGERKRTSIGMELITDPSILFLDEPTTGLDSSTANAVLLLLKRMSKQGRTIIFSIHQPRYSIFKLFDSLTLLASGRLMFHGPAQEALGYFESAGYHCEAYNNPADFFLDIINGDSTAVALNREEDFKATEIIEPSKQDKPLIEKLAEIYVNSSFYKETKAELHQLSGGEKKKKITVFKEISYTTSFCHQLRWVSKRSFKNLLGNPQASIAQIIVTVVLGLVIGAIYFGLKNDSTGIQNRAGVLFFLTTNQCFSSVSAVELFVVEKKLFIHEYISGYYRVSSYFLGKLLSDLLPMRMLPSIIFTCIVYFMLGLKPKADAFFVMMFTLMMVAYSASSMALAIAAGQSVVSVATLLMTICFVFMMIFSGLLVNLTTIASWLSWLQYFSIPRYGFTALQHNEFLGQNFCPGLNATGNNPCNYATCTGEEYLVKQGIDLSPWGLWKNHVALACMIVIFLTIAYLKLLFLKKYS
The experiment in a line: Flow cytometry binding to 293T cells overexpressing human ABCG2 (293T_ABCG2_OX). On the set-up: key to Binding by FACS: binding=“+”; non-significant binding=“−”. The conditions noted are these: for binding to 293T cells overexpressing human ABCG2: in words, FIGS. 7-11, 21; for Binding by FACS: 293T_ABCG2_OX cells. As to the method:
(§1) Cell Binding Assays. Antibody binding to cells was evaluated by flow cytometry. 293T cells stably transfected to express human or cynomolgus ABCG2 (293T_ABCG2_OX) were washed once in flow cytometry buffer (PBS+2% FBS+0.02% sodium azide), resuspended at 2×10^6 cells/mL in flow cytometry buffer, and dispensed into 96-well microtiter plates at 0.1 mL/well. Recombinant antibodies were added to cells at 5 ug/mL for initial binding confirmation, or serially diluted from 100 ug/mL in flow cytometry buffer. After incubating cells on ice for 30 min, cells were washed twice with flow cytometry buffer. Bound antibody was detected with PE-labeled F(ab′)2 fragment goat anti-human IgG (Jackson ImmunoResearch) and evaluated on an Attune NxT flow cytometer. EC50 is calculated to be the concentration of antibody that gives half maximal response.
In general terms: Flow cytometry measures light scatter and fluorescence of single cells or particles in a stream.

The test system of a further data set is cynomolgus ABCG2. Nature of the data set: Flow cytometry binding to 293T cells overexpressing cynomolgus ABCG2. Also noted: key to Cynomolgus ABCG2 binding: binding=“+”; non-significant binding=“−”. The conditions noted are these: for binding to 293T cells overexpressing cynomolgus ABCG2: in words, FIGS. 7-11, 21. As to the method:
as §1

Data set [2] has as its target T1, ABCG2. The format is cell-based. The method, then: 293T_ABCG2_OX cells were washed several times and aliquoted into 96-well plates as 50 μl aliquots/well at a cell density of 2×10e6 cells per ml in phenol red-free DMEM. Cells were mixed with 50 μl antibodies or the small molecule inhibitors of ABCG2:-fumitremorgin C (FTC), or its tetracyclic analogue K0143, with a final concentration of 1 μM. Cells were then incubated in the presence of 2.5 μM Mitoxantrone 1 h at 37° C. The cells were subsequently washed twice and finally resuspended in […] PBS. Mitoxantrone fluorescence was measured using excitation at 635 nm and emission at 647 nm. Protocols was measuring efflux blockade are found in Szabo E, et al., PLoS One. 2018 Jan. 17; 13(1):e0190629; Deeken J F, et al., Mol Pharmacol. 2009 November; 76(5):946-56).

cynomolgus ABCG2, sequence (as listed by the source): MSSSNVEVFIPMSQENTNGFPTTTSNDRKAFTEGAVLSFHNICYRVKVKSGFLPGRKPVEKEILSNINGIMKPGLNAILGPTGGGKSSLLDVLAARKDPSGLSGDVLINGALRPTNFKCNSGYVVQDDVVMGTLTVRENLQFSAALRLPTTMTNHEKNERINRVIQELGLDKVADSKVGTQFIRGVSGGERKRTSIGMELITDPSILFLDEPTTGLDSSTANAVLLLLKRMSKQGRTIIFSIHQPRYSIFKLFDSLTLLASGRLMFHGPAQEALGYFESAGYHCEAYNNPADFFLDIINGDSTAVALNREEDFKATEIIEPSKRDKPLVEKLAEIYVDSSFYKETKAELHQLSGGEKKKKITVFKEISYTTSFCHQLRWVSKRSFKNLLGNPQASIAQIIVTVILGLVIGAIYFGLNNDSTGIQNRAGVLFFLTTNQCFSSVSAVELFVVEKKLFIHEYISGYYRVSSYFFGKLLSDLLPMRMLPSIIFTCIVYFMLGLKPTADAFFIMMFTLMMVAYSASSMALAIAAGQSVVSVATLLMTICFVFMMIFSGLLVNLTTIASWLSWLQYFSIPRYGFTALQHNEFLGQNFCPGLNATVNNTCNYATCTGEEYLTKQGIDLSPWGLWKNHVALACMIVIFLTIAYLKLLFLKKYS

B1: G2.760: anti-ABCG2 monoclonal antibody (antibody, V domains shown)
VH: EVQLVESGGGLVQPGRSMKLSCAASGFTFSKSDMAWVRQAPTKGLKWVASIRYDGGNTYYRDSVRGRFTISRDNAKSTLYLQMDSLRSEDTATYYCSTAKAAISTPSYYVLDAWGQGASVTVSS
VL: DIGMTQSPTSMSKSVGDRVTMNCKASQNVGSNVDWFQQKTGQSPKLLIYKSSNRYTGVPARFTGSGSGTDFTFTISNMQAEDLAVYYCMQSNSYPPTFGGGTKLELK
In the case of B1, the “binding to 293T cells overexpressing human ABCG2” value with ABCG2 [1] is “good binding affinity”. Moreover, the “binding to 293T cells overexpressing cynomolgus ABCG2” value with cynomolgus ABCG2 is “good binding affinity”.

B2: G2.257 mouse: anti-ABCG2 antibody raised in mouse (antibody, V domains shown)
VH: EVQLQQSGPELVKPGASLKISCKTFGYSFTGYYMHWVKQSPEKSLEWIGKIVPSTGGTTYNQKFKAKATLTVDKSSFTAYMQLKSLTTEDSAVYYCAREKVYGYDVYYFDYWGQGTTLTVSS
VL: DIQMTQTPSSLSASLGDRVTITCSTSQGVRSYLNWYQQKPDGSVKLLIYYTSSLHSGVPSRFSGSGSGTDYSLTISNLEPEDIATYYCQQYSKLPYTFGGGTKLELK
Regarding B2, the “Binding by FACS” value with ABCG2 [1] was “+”. In the data set with cynomolgus ABCG2, the “Cynomolgus ABCG2 binding” value was “+”. Besides, in the data set with ABCG2 [2], the “Block Efflux” value was “−”.

B3: G2.757: anti-ABCG2 monoclonal antibody (antibody, V domains shown)
VH: QVTLKESGPGILRPSHTLSLTCSFSGFSLTTYGICVSWIRQPSGKGLEWLANICWEDSKAYNPSLKNRLTISKDTSNNQVFLRIPSVDTADSAIYYCARVFNNYPFPYWGQGTLVTVSS
VL: TQSPPSLSASLGDKVTITCQASQNINKYVAWYQQKPGKAPRLLIRYTSTLESGTPSRFSGSGSWRDYSFSISNVESEDIADYYCLQYVNLWTFGGGTKLELK
B3: the “binding to 293T cells overexpressing human ABCG2” value with ABCG2 [1] is “good binding affinity”. For the same molecule, the “binding to 293T cells overexpressing cynomolgus ABCG2” value with cynomolgus ABCG2 is listed as “good binding affinity”.

B4: G2.748: anti-ABCG2 monoclonal antibody (antibody, V domains shown)
VH: QVSLKESGPGMLQPSKTLSLTCSFSGFSLSTSGMVVNWIRQPSGKSLEWLAAIDWDGDKYYNPSLKHRLTVSKDTSNTQVVLKITSVDTADTATYYCARSIAPYRGWFGYWGQGTLVTVSS
VL: EIVLIQSPSSLPASLGERVTIICRASQDIGNNLNWYQQKPDGTIKPLIYFTSNFQSGVPSSFSGSRSGTDFSLTISSLEAEDFAMYYCQQDASLPWTFGGGTKLEIK
On to B4, for which, in the data set with ABCG2 [1], the “binding to 293T cells overexpressing human ABCG2” value is “good binding affinity”. In the data set on cynomolgus ABCG2, the “binding to 293T cells overexpressing cynomolgus ABCG2” value was “good binding affinity”.

B5: G2.640: Anti-G2 antibody raised in rats; VH SEQ ID NO:415, VL SEQ ID NO:416 (antibody, listed as Rattus norvegicus, V domains shown)
VH: EVKLEESGPGLVQPSQTLSLTCTVSGFSLTSDGVSWVRQPPGKGLEWIAAISSGGSTYYNSALKSRLSISRDTSKSQVFLKMNSLQTEDTAIYFCTRDTYYGYNQIPFVYWGQGTLVTVSS
VL: DIVIIQSPPSLSASLGDKVTISCQASQNIHRYIAWYQQKPGKAPRLLIRYTSTLESGTPSRFSGSGSGRDYSFSISNVESEDIASYYCLQYVNLWTFGGGTKLELK
Regarding B5, the “binding to 293T cells overexpressing human ABCG2” value with ABCG2 [1] is on record as “did not show significant binding”. Besides, the “binding to 293T cells overexpressing cynomolgus ABCG2” value in the data set on cynomolgus ABCG2 was “did not show significant binding”.

B6: G2.302 Humanized: humanized version of anti-ABCG2 antibody G2.302 (antibody, V domains shown)
VH: EIQLVQSGAEVKKPGASVKVSCKASGYTFTDYYINWVRQAPGQRLEWIGWIYPGNVNVKYNEKFKGRATLTVDTSASTGYMELSSLRSEDTAVYFCARSIGLRYFDNWGQGTLVTVSS
VL: EKVLTQSPATLSLSPGERATLSCRASSSVHYMYWHQQKPGQSPRLWIYYTSNLAPGVPARFSGSGSGNDYTLTISSLEPEDFAVYYCQQFTTSTWTFGGGTKLEIK
As for B6, the “Binding by FACS” value with ABCG2 [1] is “+”. Besides, the “Cynomolgus ABCG2 binding” value with cynomolgus ABCG2 is “+”. Also, in the data set with ABCG2 [2], the “Block Efflux” value is listed as “−”.

B7: G2.346 rat: anti-ABCG2 antibody raised in rat (antibody, V domains shown)
VH: SVQWKESGPGLVQPSQTLSLTCTVSGFSLTSNGVSWVRQPPGKGLEWIAAISSGGSTYYNSGLKSRLSISRDTSKSQVFLKMNSLQTEDTAIYFCTRAGYYGYNPIWFTYWGQGTLVTVSS
VL: DVVMTQTPPTLSATIGQSVSISCRSSQSLLHGSGNTYLNWLLQRPGQPPQILIYLVSRLESRVPKRFSGSGSGTDFTLKISGVEADDLGVYYCVQSTHAPFTFGSGTKLELK
In the case of B7, the “Binding by FACS” value in the data set with ABCG2 [1] was “+”. In addition, in the data set on cynomolgus ABCG2, the “Cynomolgus ABCG2 binding” value was “+”. Further, the “Block Efflux” value with ABCG2 [2] is given as “−”.

B8: G2.348 rat: anti-ABCG2 antibody raised in rat (antibody, V domains shown)
VH: EVQLVESGPGLMQPSQTLSLTCTVSGFSLTSNGVSWVRQPPGKGLEWIATISSGGNTNYNSALKSRLSISRDTSKSQVFLKMNSLQTEDTAIYFCTRVGYYGYNPIWFAYWGQGTLVTVSS
VL: DVVMTQTPPTLSATIGHSVSISCRSSQSLFHSSGNTYLSWFLQRPGQPPQLLIYLVSRLESRVPNRFSGSGSGTDFTLKISVLEAEDLGVYYCVQTTHAPFTFGSGTKLEIK
B8: the “Binding by FACS” value with ABCG2 [1] is reported as “+”. Besides, in the data set with cynomolgus ABCG2, the “Cynomolgus ABCG2 binding” value is given as “+”. Moreover, the “Block Efflux” value with ABCG2 [2] is given as “−”.

B9: G2.636.hu47: humanized variant of the anti-ABCG2 antibody G2.636 (antibody, V domains shown)
VH: EVQLVESGGGLVQPGGSLRLSCAASGFTFSRFYMAWVRQAPGKGLEWVAHISHGGDTTYYRDSVKGRFTISRDNSKNTLYLQMNSLRAEDTAVYYCTTSAAPWNYVMDGWGQGATVTVSS
VL: DIQLTQSPSSLSASVGDRVTLTCKGSQNINNFLAWYQQKPGKAPKLLIYKTNSLHTGIPSRFSGSGSGTDYTLTISSLQPEDFATYYCYQYNNGYTFGQGTKLEIK
For B9, in the data set with ABCG2 [2], the “efflux inhibition activities and binding to human and cynomolgus ABCG2 of humanized G2.636 antibodies” value is “particularly good expression and activity”.

B10: G2.247 mouse: anti-ABCG2 antibody raised in mouse (antibody, V domains shown)
VH: EVRLQQSGAELVKPGASVKLSCKTSGFTFSNSYISWLKQKPRQSLEWIAWIYAGTGGTNYNQKFTGKAQLTVDTSSSTAYMQLSSLTSEDSAIYYCATYGNFLYAMDNWGQGTSVTVSS
VL: DIVMTQSPASLSASVGETVTITCRASGNIHNYLAWYQQKQGKSPQLLVYNTKTLADGVPSRFSGSGSGTQYSLKINSLQPEDFGSYYCQHFWSTPWTFGGGTKLEIK
For B10, in the data set with ABCG2 [1], the “Binding by FACS” value is reported as “+”. For the same molecule, the “Cynomolgus ABCG2 binding” value in the data set on cynomolgus ABCG2 was “−”. Besides, the “Block Efflux” value with ABCG2 [2] is reported as “−”.

B11: G2.252 mouse: anti-ABCG2 antibody raised in mouse (antibody, V domains shown)
VH: EVQLQQSGAELVKPGASVKLSCKTSGFTFSNSYISWLKQKPRQSLEWIAWIYAGTGGTNYNQKFTGKAQLTVDTSSSTAYMQLSSLTSEDSAIYYCATYGNFLYAMDYWGQGTTLTVSS
VL: EIVLTQSPASLSASVGETVTITCRASGNIHNYLAWYQQKQGKSPQLLVYNAKTLADGVPSRFSGSGSGTQYSLKINSLQPEDFGSYYCQHFWSTPWTFGGGTKLEIK
On to B11, for which the “Binding by FACS” value in the data set with ABCG2 [1] is on record as “+”. Besides, the “Cynomolgus ABCG2 binding” value in the data set with cynomolgus ABCG2 is “−”. Besides, in the data set with ABCG2 [2], the “Block Efflux” value was “−”.

B12: G2.394 rat: anti-ABCG2 antibody raised in rat (antibody, V domains shown)
VH: EVQLKESGPGLVQPSQTLSLTCTVSGFSLTDYTITWVRQPPGKGLEWIAATSVGGATHYNSPLKSRLSISGDTSKSQVFLKMNSLRTEDTAMYFCVRSGYYSTYMNWGRGTMVTVSS
VL: DVVMTQTPPTFSATIGQSVSISCRSSQSLLHSSGNTFLSWLLQRPGQPPQLLIYLVSRLEFGVPNRFSGSGSGTDFTLKISGVEAEDLGVYYCVQSTHVMNTFGAGTKLEIK
B12: in the data set with ABCG2 [1], the “Binding by FACS” value is “+”. In addition, the “Cynomolgus ABCG2 binding” value in the data set on cynomolgus ABCG2 is on record as “+”. Moreover, the “Block Efflux” value in the data set with ABCG2 [2] was “−”.

These data come from patent publication US20230212305A1, “ANTI-ABCG2 ANTIBODIES AND USES THEREOF” (Kenjockety Biotechnology, Inc., priority 2020, published 2023).
